Test results published in patent publication US11597752B2, “Peptides and combination of peptides and scaffolds thereof for use in immunotherapy against colorectal carcinoma (CRC) and other cancers” (priority 2015, dated 2023).

What follows are substances tested against HLA-A*02:01 (Homo sapiens, UniProt P04439, D140Y/D185E/D98H/E176V/E277Q/G131W/G231S/I119V/I121R/I166T/I218V/L300P/L318F/N151K/N90K/P208A/P217A/Q86G/Q94H/R138H/R169H/T345S) (assay: MHC binding assay (UV-ligand exchange, beta2m ELISA, peptide exchange yield)). Details: binding to HLA-A*02:01, β2m ELISA.
Source text: Candidate peptides for T cell based therapies according to the present invention were further tested for their MHC binding capacity (affinity). The individual peptide-MHC complexes were produced by UV-ligand exchange, where a UV-sensitive peptide is cleaved upon UV-irradiation, and exchanged with the peptide of interest as analyzed. Only peptide candidates that can effectively bind and stabilize the peptide-receptive MHC molecules prevent dissociation of the MHC complexes. To determine the yield of the exchange reaction, an ELISA was performed based on the detection of the light chain (β2m) of stabilized MHC complexes. The assay was performed as generally described in Rodenko et al. (Rodenko et al., 2006).
96 well MAXISorp plates (NUNC) were coated over night with 2 ug/ml streptavidin in PBS at room temperature, washed 4× and blocked for 1 h at 37° C. in 2% BSA containing blocking buffer. Refolded HLA-A*02:01/MLA-001 monomers served as standards, covering the range of 15-500 ng/ml. Peptide-MHC monomers of the UV-exchange reaction were diluted 100 fold in blocking buffer. Samples were incubated for 1 h at 37° C., washed four times, incubated with 2 ug/ml HRP conjugated anti-β2m for 1 h at 37° C., washed again and detected with TMB solution that is stopped with […]. Absorption was measured at 450 nm. Candidate peptides that show a high exchange yield (preferably higher than 50%, most preferred higher than 75%) are generally preferred for a generation and production of antibodies or fragments thereof, and/or T cell receptors or fragments thereof, as they show sufficient avidity to the MHC molecules and prevent dissociation of the MHC complexes.

Substance | Peptide exchange (MHC class I binding score, peptide exchange yield)
138 (KQFEGTVEI; listed as Homo sapiens) [compound 138] | “+++” (≥50 = +++)
139 (VLLNEILEQV; listed as Homo sapiens) [compound 139] | “+++” (≥50 = +++)
140 (LLNEILEQV; listed as Homo sapiens) [compound 140] | “+++” (≥50 = +++)
143 (KLSDVWKEL; listed as Homo sapiens) [compound 143] | “+++” (≥50 = +++)
144 (LLNDRIWLA; listed as Homo sapiens) [compound 144] | “+++” (≥50 = +++)
145 (LLLEVVKQV; listed as Homo sapiens) [compound 145] | “+++” (≥50 = +++)
146 (ALSDETWGL; listed as Homo sapiens) [compound 146] | “++” (≥20% = ++)
147 (TLTELRAFL; listed as Homo sapiens) [compound 147] | “++++” (≥75% = ++++)
148 (RLLENMTEVV; listed as Homo sapiens) [compound 148] | “+++” (≥50 = +++)
149 (YQFDKVGILTL; listed as Homo sapiens) [compound 149] | “+++” (≥50 = +++)
151 (SAQGSDVSLTACKV; listed as Homo sapiens) [compound 151] | “+++” (≥50 = +++)
152 (KLLAVIHEL; listed as Homo sapiens) [compound 152] | “++” (≥20% = ++)
153 (ILFSEDSTKLFV; listed as Homo sapiens) [compound 153] | “+++” (≥50 = +++)
154 (KLPSETIFVGC; listed as Homo sapiens) [compound 154] | “+++” (≥50 = +++)
155 (RLLGEEVVRV; listed as Homo sapiens) [compound 155] | “+++” (≥50 = +++)
156 (SLMMTIINL; listed as Homo sapiens) [compound 156] | “++++” (≥75% = ++++)
157 (SLIERDLKL; listed as Homo sapiens) [compound 157] | “+++” (≥50 = +++)
158 (GLLDPSVFHV; listed as Homo sapiens) [compound 158] | “+++” (≥50 = +++)
159 (VLVDDDGIKVV; listed as Homo sapiens) [compound 159] | “++” (≥20% = ++)
160 (KLLEFDQLQL; listed as Homo sapiens) [compound 160] | “+++” (≥50 = +++)
161 (FLKNELDNV; listed as Homo sapiens) [compound 161] | “+++” (≥50 = +++)

Now from value to substance:

Peptide exchange (MHC class I binding score, peptide exchange yield) | Substance
“+++” (≥50 = +++) | 162 (KLMDYIDEL; listed as Homo sapiens) [compound 162]
“+++” (≥50 = +++) | 163 (RLLHEVQEL; listed as Homo sapiens) [compound 163]
“++++” (≥75% = ++++) | 164 (KMLDEILLQL; listed as Homo sapiens) [compound 164]
“++++” (≥75% = ++++) | 165 (RLLDFPEAMVL; listed as Homo sapiens) [compound 165]
“+++” (≥50 = +++) | 166 (GLLEARGILGL; listed as Homo sapiens) [compound 166]
“+++” (≥50 = +++) | 167 (SVIDHIHLISV; listed as Homo sapiens) [compound 167]
“+++” (≥50 = +++) | 168 (GLIRFPLMTI; listed as Homo sapiens) [compound 168]
“+++” (≥50 = +++) | 169 (YLAHFIEGL; listed as Homo sapiens) [compound 169]
“+++” (≥50 = +++) | 170 (ALAGGITMV; listed as Homo sapiens) [compound 170]
“++” (≥20% = ++) | 171 (RLQETEGMVAV; listed as Homo sapiens) [compound 171]
“+++” (≥50 = +++) | 172 (LLLDTVTMQV; listed as Homo sapiens) [compound 172]
“+++” (≥50 = +++) | 173 (KLGDLMVLL; listed as Homo sapiens) [compound 173]
“++++” (≥75% = ++++) | 174 (ILLDDNMQIRL; listed as Homo sapiens) [compound 174]
“+++” (≥50 = +++) | 175 (TLLGGKEAQALGV; listed as Homo sapiens) [compound 175]
“++” (≥20% = ++) | 176 (RTLDKVLEV; listed as Homo sapiens) [compound 176]
“+++” (≥50 = +++) | 177 (ALLQGAIESV; listed as Homo sapiens) [compound 177]
“++” (≥20% = ++) | 178 (YLFREPATI; listed as Homo sapiens) [compound 178]
“+++” (≥50 = +++) | 179 (RLLSPLSSA; listed as Homo sapiens) [compound 179]
“+++” (≥50 = +++) | 181 (NLFDLGGQYLRV; listed as Homo sapiens) [compound 181]
“++++” (≥75% = ++++) | 182 (SLNKWIFTV; listed as Homo sapiens) [compound 182]
“+++” (≥50 = +++) | 183 (TLQEVVTGV; listed as Homo sapiens) [compound 183]
“+++” (≥50 = +++) | 184 (SLLDENNVSSYL; listed as Homo sapiens) [compound 184]
“+++” (≥50 = +++) | 185 (VLYTGVVRV; listed as Homo sapiens) [compound 185]
“+++” (≥50 = +++) | 186 (KMSEKILLL; listed as Homo sapiens) [compound 186]
“+++” (≥50 = +++) | 187 (GLHNVVYGI; listed as Homo sapiens) [compound 187]
“+++” (≥50 = +++) | 188 (FLVDGPRVQL; listed as Homo sapiens) [compound 188]
“+++” (≥50 = +++) | 189 (AISEVIGKITA; listed as Homo sapiens) [compound 189]
“+++” (≥50 = +++) | 190 (AMAEMVLQV; listed as Homo sapiens) [compound 190]
“++++” (≥75% = ++++) | 191 (QLFSEIHNL; listed as Homo sapiens) [compound 191]
